Article PMC8184817, “Transmission of light signals from the light-oxygen-voltage core via the hydrophobic region of the β-sheet surface in aureochrome-1” (Scientific Reports, 2021)
Positions count from the first letter of the chain named.

What was measured:
Test in all cases: EMSA; QCM; dark state; EC50 similar to wtPZ; EMSA: 5% polyacrylamide gel, 25 C, dark or blue light 5 W/m2; QCM: 27 MHz, QCM buffer, 25 C; buffer, salt and pH not given (earlier papers cited); EC50 values (nM, per monomer) only in figures
Details in all cases: protein: recombinant; chain copies: 2; label: Alexa Fluor647 (EMSA); biotin (QCM); blunt; self-complementary palindrome, 2 copies
PZ Q217A = biological target: T1, PZ Q217A (Vaucheria frigida? (VfAUREO1), UniProt A8QW55 113-348, C162S;C182S;Q217A)
T1 sequence: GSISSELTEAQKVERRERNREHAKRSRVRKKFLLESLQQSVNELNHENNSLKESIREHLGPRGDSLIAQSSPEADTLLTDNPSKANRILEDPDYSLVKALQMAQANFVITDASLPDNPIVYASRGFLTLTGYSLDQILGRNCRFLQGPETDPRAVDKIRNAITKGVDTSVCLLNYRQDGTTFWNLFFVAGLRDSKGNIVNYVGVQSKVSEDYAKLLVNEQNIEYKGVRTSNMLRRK

PZ Q216A = biological target: T2, PZ Q216A (Vaucheria frigida? (VfAUREO1), UniProt A8QW55 113-348, C162S;C182S;Q216A)
T2 sequence: T1 sequence with Q104A, A105Q

PZ L212A = biological target: T3, PZ L212A (Vaucheria frigida? (VfAUREO1), UniProt A8QW55 113-348, C162S;C182S;L212A)
T3 sequence: T1 sequence with L100A, A105Q

PZ N218A = biological target: T4, PZ N218A (Vaucheria frigida? (VfAUREO1), UniProt A8QW55 113-348, C162S;C182S;N218A)
T4 sequence: T1 sequence with A105Q, N106A

Measured: binding result

B1: dsApo (dsDNA)
DNA 1: GCTGTCTGACGTCAGACAGC
DNA 2: GCTGTCTGACGTCAGACAGC
binds: PZ Q217A | PZ Q216A | PZ L212A | PZ N218A
